From US20260274955A1 (JANUX THERAPEUTICS, published 2026)

Legend:
[1] = molecular target: T1, Anti-CD28 Fab (SEQ ID NOs: 202, 203); test: phage ELISA on captured biotinylated Fab;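 note: wells preblocked with or without CD28 antigen, then clonal phage supernatant added briefly, washed, and bound phage read out by ELISA using HRP-linked anti-M13 antibody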
T1 construct: biotinylated and captured on neutravidin coated plates in the phage ELISA
Procedure: (§1) Clonal phage were harvested as crude supernatants and screened via standard ELISAs. […] Prior to the addition of clonal phage, wells were incubated with blocking buffer and CD28 antigen or blocking buffer alone. Without washing or aspirating, clonal phage supernatants were then added to the wells and incubated for a short time. Wells were then washed followed by detection of bound phage using a horse radish conjugated anti-M13 antibody.

[2] = molecular target: T1, Anti-CD28 Fab (SEQ ID NOs: 202, 203); test: phage ELISA on captured Fab, wells pre-incubated with CD28 antigen (competitor: CD28);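 note: bound clonal phage detected with an HRP-linked anti-M13 antibody, compared against wells that received blocking buffer alone without CD28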
Procedure: as §1

T1 sequence (VH, as listed by the source, chain 1 of 2): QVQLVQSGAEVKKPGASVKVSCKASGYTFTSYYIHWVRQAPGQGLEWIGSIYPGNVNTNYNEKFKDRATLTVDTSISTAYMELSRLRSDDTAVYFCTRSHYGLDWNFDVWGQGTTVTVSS
T1 sequence (VL, as listed by the source, chain 2 of 2): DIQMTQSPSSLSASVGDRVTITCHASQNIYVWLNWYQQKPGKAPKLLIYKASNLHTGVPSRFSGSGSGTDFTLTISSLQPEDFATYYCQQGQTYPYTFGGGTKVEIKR

B1: Phage-193 (peptide)
peptide: YCEGHLPQYIPKCL
Anti-CD28 Fab signal [1]: 2.12
Anti-CD28 Fab signal in the presence of CD28 [2]: 0.07

B2: Phage-207 (peptide)
peptide: YCAGHLPEHIGKCL
Anti-CD28 Fab signal [1]: 2.09
Anti-CD28 Fab signal in the presence of CD28 [2]: 0.07

B3: Phage-208 (peptide)
peptide: YCEGHTAEYLQKCL
Anti-CD28 Fab signal [1]: 2.09
Anti-CD28 Fab signal in the presence of CD28 [2]: 0.1

B4: Phage-183 (peptide)
peptide: YCDGHLGIYMWKCL
Anti-CD28 Fab signal [1]: 2.14
Anti-CD28 Fab signal in the presence of CD28 [2]: 0.08

B5: Phage-268 (peptide)
peptide: YCDGHLGIYMTKCL
Anti-CD28 Fab signal [1]: 1.98
Anti-CD28 Fab signal in the presence of CD28 [2]: 0.08

B6: Phage-184 (peptide)
peptide: YCEGHSAEYMAKCL
Anti-CD28 Fab signal [1]: 2.14
Anti-CD28 Fab signal in the presence of CD28 [2]: 0.06

B7: Phage-213 (peptide)
peptide: YCEGHSAEYMWKCL
Anti-CD28 Fab signal [1]: 2.08
Anti-CD28 Fab signal in the presence of CD28 [2]: 0.09

B8: Phage-226 (peptide)
peptide: YCEGHSAEYMNKCL
Anti-CD28 Fab signal [1]: 2.06
Anti-CD28 Fab signal in the presence of CD28 [2]: 0.07

B9: Phage-244 (peptide)
peptide: YCDGHSSEYMWKCL
Anti-CD28 Fab signal [1]: 2.03
Anti-CD28 Fab signal in the presence of CD28 [2]: 0.06

B10: Phage-192 (peptide)
peptide: YCDGHSAEYMMKCL
Anti-CD28 Fab signal [1]: 2.12
Anti-CD28 Fab signal in the presence of CD28 [2]: 0.08

B11: Phage-295 (peptide)
peptide: YCEGHSMEYMAKCL
Anti-CD28 Fab signal [1]: 1.92
Anti-CD28 Fab signal in the presence of CD28 [2]: 0.07

B12: Phage-204 (peptide)
peptide: YCDGHSAEYMSKCL
Anti-CD28 Fab signal [1]: 2.1
Anti-CD28 Fab signal in the presence of CD28 [2]: 0.06

B13: Phage-286 (peptide)
peptide: YCDGHASEYMWKCL
Anti-CD28 Fab signal [1]: 1.94
Anti-CD28 Fab signal in the presence of CD28 [2]: 0.06

B14: Phage-237 (peptide)
peptide: YCDGHASEYMMKCL
Anti-CD28 Fab signal [1]: 2.05
Anti-CD28 Fab signal in the presence of CD28 [2]: 0.06

B15: Phage-245 (peptide)
peptide: YCSGHLPEYMSKCL
Anti-CD28 Fab signal [1]: 2.03
Anti-CD28 Fab signal in the presence of CD28 [2]: 0.09

B16: Phage-210 (peptide)
peptide: YCSGHLPEYMEKCL
Anti-CD28 Fab signal [1]: 2.09
Anti-CD28 Fab signal in the presence of CD28 [2]: 0.09

B17: Phage-181 (peptide)
peptide: YCEGHLPEYMSKCL
Anti-CD28 Fab signal [1]: 2.15
Anti-CD28 Fab signal in the presence of CD28 [2]: 0.07

B18: Phage-191 (peptide)
peptide: YCAGHLPLYMEKCL
Anti-CD28 Fab signal [1]: 2.12
Anti-CD28 Fab signal in the presence of CD28 [2]: 0.06

B19: Phage-190 (peptide)
peptide: YCEGHLPQYLAKCL
Anti-CD28 Fab signal [1]: 2.12
Anti-CD28 Fab signal in the presence of CD28 [2]: 0.1

B20: Phage-198 (peptide)
peptide: YCDGHLEEYMAKCL
Anti-CD28 Fab signal [1]: 2.11
Anti-CD28 Fab signal in the presence of CD28 [2]: 0.09

B21: Phage-209 (peptide)
peptide: YCAGHSPEYMGKCM
Anti-CD28 Fab signal [1]: 2.09
Anti-CD28 Fab signal in the presence of CD28 [2]: 0.06

B22: Phage-189 (peptide)
peptide: YCDGHIPIYMSKCL
Anti-CD28 Fab signal [1]: 2.13
Anti-CD28 Fab signal in the presence of CD28 [2]: 0.08

B23: Phage-260 (peptide)
peptide: YCDGHSPIYMSKCL
Anti-CD28 Fab signal [1]: 2
Anti-CD28 Fab signal in the presence of CD28 [2]: 0.09

B24: Phage-195 (peptide)
peptide: YCDGHLPVYMAKCL
Anti-CD28 Fab signal [1]: 2.11
Anti-CD28 Fab signal in the presence of CD28 [2]: 0.09

B25: Phage-222 (peptide)
peptide: YCDGHLPAYMAKCL
Anti-CD28 Fab signal [1]: 2.06
Anti-CD28 Fab signal in the presence of CD28 [2]: 0.12

B26: Phage-211 (peptide)
peptide: YCAGHLEIYMQKCL
Anti-CD28 Fab signal [1]: 2.09
Anti-CD28 Fab signal in the presence of CD28 [2]: 0.08

B27: Phage-182 (peptide)
peptide: YCAGHLPEYMQKCL
Anti-CD28 Fab signal [1]: 2.15
Anti-CD28 Fab signal in the presence of CD28 [2]: 0.09

B28: Phage-185 (peptide)
peptide: YCDGHSDEYMAKCL
Anti-CD28 Fab signal [1]: 2.14
Anti-CD28 Fab signal in the presence of CD28 [2]: 0.07

B29: Phage-187 (peptide)
peptide: YCDGHQPEYMAKCL
Anti-CD28 Fab signal [1]: 2.14
Anti-CD28 Fab signal in the presence of CD28 [2]: 0.07

B30: Phage-201 (peptide)
peptide: YCAGHTQEYMSKCL
Anti-CD28 Fab signal [1]: 2.1
Anti-CD28 Fab signal in the presence of CD28 [2]: 0.05

B31: Phage-203 (peptide)
peptide: YCDGHVPQYMAKCL
Anti-CD28 Fab signal [1]: 2.1
Anti-CD28 Fab signal in the presence of CD28 [2]: 0.07

B32: Phage-205 (peptide)
peptide: YCQGHLPQYIAKCL
Anti-CD28 Fab signal [1]: 2.09
Anti-CD28 Fab signal in the presence of CD28 [2]: 0.08

B33: Phage-206 (peptide)
peptide: YCAGHLPQYMEKCM
Anti-CD28 Fab signal [1]: 2.09
Anti-CD28 Fab signal in the presence of CD28 [2]: 0.08

B34: Phage-294 (peptide)
peptide: YCDGHSPEYMTKCL
Anti-CD28 Fab signal [1]: 1.93
Anti-CD28 Fab signal in the presence of CD28 [2]: 0.07

B35: Phage-196 (peptide)
peptide: YCMGHSEEYMQKCL
Anti-CD28 Fab signal [1]: 2.11
Anti-CD28 Fab signal in the presence of CD28 [2]: 0.07

B36: Phage-167 (peptide)
peptide: YCDGHTQEYIAKCL
Anti-CD28 Fab signal [1]: 2.17
Anti-CD28 Fab signal in the presence of CD28 [2]: 0.06

B37: Phage-265 (peptide)
peptide: YCDGHSQEYIAKCL
Anti-CD28 Fab signal [1]: 1.99
Anti-CD28 Fab signal in the presence of CD28 [2]: 0.07

B38: Phage-186 (peptide)
peptide: YCEGHSLEYIGKCL
Anti-CD28 Fab signal [1]: 2.14
Anti-CD28 Fab signal in the presence of CD28 [2]: 0.06

B39: Phage-219 (peptide)
peptide: YCAGHLPEYIDKCL
Anti-CD28 Fab signal [1]: 2.07
Anti-CD28 Fab signal in the presence of CD28 [2]: 0.08

B40: Phage-188 (peptide)
peptide: YCAGHLPEYISKCL
Anti-CD28 Fab signal [1]: 2.14
Anti-CD28 Fab signal in the presence of CD28 [2]: 0.08

B41: Phage-296 (peptide)
peptide: YCAGHMPEYIDKCL
Anti-CD28 Fab signal [1]: 1.92
Anti-CD28 Fab signal in the presence of CD28 [2]: 0.06

B42: Phage-202 (peptide)
peptide: YCEGHSPQYMQKCL
Anti-CD28 Fab signal [1]: 2.1
Anti-CD28 Fab signal in the presence of CD28 [2]: 0.06

B43: Phage-241 (peptide)
peptide: YCEGHSPQYMSKCL
Anti-CD28 Fab signal [1]: 2.04
Anti-CD28 Fab signal in the presence of CD28 [2]: 0.07

B44: Phage-200 (peptide)
peptide: YCSGHAPIYMAKCL
Anti-CD28 Fab signal [1]: 2.1
Anti-CD28 Fab signal in the presence of CD28 [2]: 0.07

B45: Phage-287 (peptide)
peptide: YCSGHAPEYMAKCL
Anti-CD28 Fab signal [1]: 1.94
Anti-CD28 Fab signal in the presence of CD28 [2]: 0.06

B46: Phage-212 (peptide)
peptide: YCMGHLPQYMEKCL
Anti-CD28 Fab signal [1]: 2.08
Anti-CD28 Fab signal in the presence of CD28 [2]: 0.08

B47: Phage-166 (peptide)
peptide: YCMGHLPQYMQKCL
Anti-CD28 Fab signal [1]: 2.18
Anti-CD28 Fab signal in the presence of CD28 [2]: 0.11

B48: Phage-267 (peptide)
peptide: YCVGHLPQYMEKCL
Anti-CD28 Fab signal [1]: 1.98
Anti-CD28 Fab signal in the presence of CD28 [2]: 0.08
